Measured values reported in patent US20210115121A1 (UCB, published 2021).
Substitutions are numbered along the chain they refer to. “And” between values parts separate entries of the source, which are not always exact repeats. Equal entries are not always repeated.

Assays:
[1] = molecular target: T1, Tau from human Alzheimer's disease brain (isolated Tau PHF fibrils from Alzheimer's disease patients) (human, UniProt P10636-8 2-441, limits assumed); assay: cell-based or functional assay
[2] = molecular target: T2, tau peptide 234-250, N-acetyl-KSPSSAKSRLQTAPVPM-amide (human); assay: X-ray crystallography of the Fab/peptide co-complex
T2 peptide: Ac-KSPSSAKSRLQTAPVPM-NH2
Excerpt: We collected the x-ray diffraction data through a single L14H18 Fab/tau peptide 234-250 crystal. The crystal was suspended in a litho loop and flash frozen under liquid nitrogen, after briefly passing through a cryoprotectant solution containing 30% polyethylene glycol 4000, 0.2M calcium chloride, 0.1M HEPES buffer pH 7.5 and 10% ethylene glycol. The diffraction data was collected on a Pilatis 6M at the 104-1 beamline station at the Diamond synchrotron, Didcot, Oxfordshire, UK. The wavelength of the monochromatic x-ray beam was 0.92819A. The reciprocal space was sampled at 0.2° oscillation steps around the φ goniostat axis. The processed data XIA file provided from the synchrotron facility was used for structure determination
For model building the computer program Coot (Emsley P., Lohkamp B., Scott W. G., Cowton K. Acta Crystallography D Biol Crystallography, 2010 April; 66 (Pt 4): 486-501) was used. Refinement was carried out using the program REFMAC (Murshudov G. N., Skubak P., Lebedev A. A., Pannu N. S., Steiner R. A., Nicholls R. A., Winn M. D., Long F., Vagin A. A. Acta Crystallogr D Biol Crystallogr 2011 April; 67 (Pt 4): 355-67).
The interaction between antibody L14H18 and tau peptide, N-acetyl-[…]-amide (based on human tau isoform 2 sequence 234 to 250), was studied by x-ray crystallography using a co-complex prepared from L14H18 Fab fragment incubated with the peptide. […]

[3] = molecular target: Tau from human progressive supranuclear palsy brain (human, UniProt P10636-8 2-441, limits assumed); assay: cell-based or functional assay
Sequence of Tau from human progressive supranuclear palsy brain (P10636 other isoform, or with tags, fused parts or gaps limits assumed): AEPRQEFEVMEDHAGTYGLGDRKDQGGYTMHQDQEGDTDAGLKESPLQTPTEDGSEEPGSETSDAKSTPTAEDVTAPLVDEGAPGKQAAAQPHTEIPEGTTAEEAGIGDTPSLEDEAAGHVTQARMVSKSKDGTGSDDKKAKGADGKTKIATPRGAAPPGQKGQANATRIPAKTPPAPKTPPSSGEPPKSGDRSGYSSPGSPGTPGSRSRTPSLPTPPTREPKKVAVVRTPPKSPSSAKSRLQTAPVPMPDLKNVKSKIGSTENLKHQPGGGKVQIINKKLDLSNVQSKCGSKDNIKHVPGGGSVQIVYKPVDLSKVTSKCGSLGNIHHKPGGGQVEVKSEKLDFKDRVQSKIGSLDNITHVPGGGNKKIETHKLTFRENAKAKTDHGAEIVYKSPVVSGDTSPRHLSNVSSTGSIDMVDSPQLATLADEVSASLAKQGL

[4] = molecular target: Tau from human frontotemporal dementia brain (human, UniProt P10636-8 2-441, limits assumed); assay: cell-based or functional assay
[5] = molecular target: human Tau P301L from brain of P301L Tau transgenic mice (human, UniProt P10636-8 2-441, limits assumed); assay: cell-based or functional assay
Sequence of human Tau P301L from brain of P301L Tau transgenic mice (P10636 other isoform, or with tags, fused parts or gaps P301L P301L P301L P301L limits assumed): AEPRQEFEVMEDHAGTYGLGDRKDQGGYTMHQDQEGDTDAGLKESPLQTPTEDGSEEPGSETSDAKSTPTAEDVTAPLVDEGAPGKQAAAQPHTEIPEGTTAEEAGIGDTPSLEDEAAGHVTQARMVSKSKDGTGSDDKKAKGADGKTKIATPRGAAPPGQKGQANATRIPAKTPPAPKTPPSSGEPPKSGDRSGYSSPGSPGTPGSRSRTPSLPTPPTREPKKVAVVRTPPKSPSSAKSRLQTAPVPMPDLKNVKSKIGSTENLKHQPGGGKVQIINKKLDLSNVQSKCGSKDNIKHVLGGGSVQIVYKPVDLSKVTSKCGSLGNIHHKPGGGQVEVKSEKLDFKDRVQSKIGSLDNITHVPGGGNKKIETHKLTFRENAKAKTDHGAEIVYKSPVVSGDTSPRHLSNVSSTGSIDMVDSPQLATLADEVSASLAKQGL

[6] = molecular target: T3, monomeric Tau isoform-2 expressed in E. coli (human, UniProt P10636 2-758); assay: SPR, Biacore T200, Tau amine-immobilised, mFab as analyte
T3 construct: also called Ecoli iso-2; E. coli Tau
T3 sequence (P10636 other isoform, or with tags, fused parts or gaps limits assumed): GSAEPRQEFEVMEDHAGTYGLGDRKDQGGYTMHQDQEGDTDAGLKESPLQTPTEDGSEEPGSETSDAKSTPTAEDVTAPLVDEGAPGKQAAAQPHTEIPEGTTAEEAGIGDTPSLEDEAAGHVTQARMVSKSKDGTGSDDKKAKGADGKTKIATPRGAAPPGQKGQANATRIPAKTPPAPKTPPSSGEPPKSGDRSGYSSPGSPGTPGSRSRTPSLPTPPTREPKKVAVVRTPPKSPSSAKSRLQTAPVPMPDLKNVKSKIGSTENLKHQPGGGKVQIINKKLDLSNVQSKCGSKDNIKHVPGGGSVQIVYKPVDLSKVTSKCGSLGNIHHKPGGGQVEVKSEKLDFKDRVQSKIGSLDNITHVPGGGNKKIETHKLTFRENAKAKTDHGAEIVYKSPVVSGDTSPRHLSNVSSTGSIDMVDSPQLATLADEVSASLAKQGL
Experimental: (§1) Absorption at 280 nm was used to determine the concentration of the Fab stock solutions for the BIAcore analysis. An insoluble Tau protein preparation from Alzheimer's disease patients (AD-PHF, fraction 11), the HEK-derived Tau isoform-2 monomers (amino acids 1-441), and the isoform-2 monomers expressed in E. coli were amine immobilized onto the CMS chip, and binding of anti-Tau mFabs was measured with the Biacore T200 instrument. The buffer HBS-EP from GE Healthcare was used for immobilizations apart from the AD-PHF for which 10 mM acetic acid (pH3.0) was used. The HBS-EP+buffer was supplemented with 300 mM NaCl and 1.25% CM-Dextran (Sigma) and used as the assay buffer. While flow cell (Fc) 1 was used as a reference, the following RU values were obtained for Fc2-4: 44 RU with 5 μg/ml E. coli Tau, 56 RU with 5 μg/m HEK Tau, and 500 RU with a 1:20 diluted solution of the AD-PHF material. Two 60 s cycles of 10 mM Glycine (pH1.7) were used for regeneration. Flow rates of 10 μl/min were used for immobilization and regeneration while a 30 μl/min flow rate was used for analyte binding. For AD-PHF, multiple manual injections were applied to reach 500 RU, including EDC/NHS and EtoA capping. Five start-up cycles and 12 cycles per mFab sample or buffer control were applied, using 90 μl analyte injections for either 180 s or 300 s for dissociation. 11 1:3 dilutions of a 600 nM solution plus buffer were used for each mFab. AB1 was analyzed using the BIAcore test.

[7] = molecular target: T4, monomeric Tau isoform-2 derived from mammalian HEK293 cells (human, UniProt P10636 2-758); assay: as above
T4 construct: also called HEK iso-2; HEK Tau
Experimental: as §1

[8] = molecular target: T1, Tau from human Alzheimer's disease …; assay: SPR, Biacore T200, AD-PHF fraction 11 amine-immobilised, mFab as analyte
Experimental: as §1

T1 sequence (P10636 other isoform, or with tags, fused parts or gaps limits assumed): as the sequence (P10636 other isoform, or with tags, fused parts or gaps P301L P301L P301L P301L limits assumed) above, with L300P counted along it

B1: Tau-binding antibody having the light chain of SEQ ID No.: 14 and the heavy chain of SEQ ID No.:17 (antibody, human IgG4 S228P, kappa, V domains shown)
VH: EVQLQESGPGLVKPSETLSLTCTVSGFSLTSNDIAWIRQPPGKGLEWMGTIWTDGSTNYNAAVQSRVTISVDTSKNQFSLKLSSVTAADTAVYYCARHRLYYGAFDYWGQGTMVTVSS
VL: DIVMTQTPLSLSVTPGQPASISCRSSQSLEYSDGYTYLEWYLQKPGQSPQLLIYEVSNRFSGVPDRFSGSGSGTDFTLKISRVEAEDVGVYYCFQATHNPYTFGQGTKLEIKR
IC50 (cellular Tau aggregation assay) [1]: 11 nM
Imax (maximal efficacy at 300 nM, cellular Tau aggregation assay) [1]: 98%

B2: L14H18 Fab (Fab, V domains shown)
VH: B1 VH with A61T
VL: B1 VL
notes: also called L14H18 Fab fragment; L14H18 Fab protein
binding result [2]: binds

B3: Tau-binding antibody having the light chain of SEQ ID No.: 14 and the heavy chain of SEQ ID No.:18 (antibody, human IgG4 S228P, kappa, V domains shown)
VH: B1 VH with A61T
VL: B1 VL
IC50 (cellular Tau aggregation assay) [1]: 12 nM
Imax (maximal efficacy at 300 nM, cellular Tau aggregation assay) [1]: 98%
IC50 (cellular Tau aggregation assay) [3]: 42 nM
Imax (maximal efficacy at 300 nM, cellular Tau aggregation assay) [3]: 100%
IC50 (cellular Tau aggregation assay) [4]: 1 nM
Imax (maximal efficacy at 300 nM, cellular Tau aggregation assay) [4]: 99%

B4: AB1 having a rat VL of SEQ ID NO: 7 and a rat VH of SEQ ID NO.:8 (antibody, IgG1, V domains shown)
VH: EVKLEESGPGLMQPSETLSLTCTVSGFSLTSNDIAWVRQPLGKGLVWMGTIWTDGSTNYNSAVQSRLSISRDTSKSQFFLKMNSLQPEDTGTYYCARHRLYYGAFDYWGQGTMVTVS
VL: DIVMTQTPVSLSVTLGDQASISCRSSQSLEYSDGYTYLEWYLQKPGQSPQLLIYEVSNRFSGVPDRFIGSGSGTDFTLKISRVEPEDLGVYYCFQATHNPYTFGAGTKLEIK
IC50 (cellular Tau aggregation assay) [1]: 4 nM
Imax (maximal efficacy at 300 nM, cellular Tau aggregation assay) [1]: 98%
IC50 (cellular Tau aggregation assay) [4]: 3 nM
Imax (maximal efficacy at 300 nM, cellular Tau aggregation assay) [4]: 97%
IC50 (cellular Tau aggregation assay) [5]: 30 nM
Imax (maximal efficacy at 300 nM, cellular Tau aggregation assay) [5]: 89%

B5: mFab AB1 having a rat VL of SEQ ID No.: 7 and a rat VH of SEQ ID No.: 8 (Fab, V domains shown)
VH: B4 VH
VL: B4 VL
notes: also called AB1 Fab; anti-Tau mFab
Kd [6]: 160 nM
koff [6]: 0.011 s⁻¹
kon [6]: 69000 M⁻¹ s⁻¹ and 73000 M⁻¹ s⁻¹
Kd [7]: 160 nM and 170 nM
koff [7]: 0.011 s⁻¹
kon [7]: 70000 M⁻¹ s⁻¹ and 66000 M⁻¹ s⁻¹
Kd [8]: 190 nM and 180 nM
koff [8]: 0.0096 s⁻¹ and 0.008 s⁻¹
kon [8]: 52000 M⁻¹ s⁻¹ and 44000 M⁻¹ s⁻¹
